Test results reported in PMC5384396.
pKd: −log10 of the molar value.

How the values were obtained:
[1] = target: histidine-tagged recombinant FcγRIIIa (158V) (human); experiment: SPR
[2] = target: hGITR on hGITR-transfected Jurkat cells (human) (UniProt Q9Y5U5)
[3] = target: hGITR on hGITR-transfected Jurkat cells (human) (UniProt Q9Y5U5); remark: listed apart in the source

Chain of hGITR on hGITR-transfected Jurkat cells (human) (Q9Y5U5 26-241): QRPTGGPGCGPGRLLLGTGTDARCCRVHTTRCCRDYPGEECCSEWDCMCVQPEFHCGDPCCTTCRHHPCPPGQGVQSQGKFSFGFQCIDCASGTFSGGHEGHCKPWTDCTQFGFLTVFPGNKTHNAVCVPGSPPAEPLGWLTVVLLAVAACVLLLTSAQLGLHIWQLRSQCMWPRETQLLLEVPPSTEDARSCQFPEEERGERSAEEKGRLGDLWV

Question: IgG1 isotype control antibody was tested. Which pKd [1] did it give?
Answer: The pKd was 6.76.

Question: Which Jurkat-based NFκB reporter gene assay, EC50, comparison of Fc isotypes (Fig. S5) [2] does the source give for “IgG4 Fc-containing GITRL FP (from UniProt Q9UNG2 49-177) (Fc fusion)” here?
Answer: The Jurkat-based NFκB reporter gene assay, EC50, comparison of Fc isotypes (Fig. S5) was 0.3 nM.

Question: “hGITRL FP with the human matrilin 1 trimerization domain (from UniProt Q9UNG2 49-177) (Fc fusion)” was tested. Which NFκB-luciferase reporter in hGITR-transfected Jurkat cells, agonism EC50 [3] did it give?
Answer: The NFκB-luciferase reporter in hGITR-transfected Jurkat cells, agonism EC50 was 0.92 nM.
